Source: the supplement of paper PMC10567573

B1: ANKRD17 (parent)
chain: EMVRFLLEAGADQEHKTDEMHTAL
B2: VAMP4 (parent)
chain: IMALVAAILLLVIIILIVMKYRT

Variants of: B1
Assay: protein stability index of a GFP-peptide fusion (GPS, HEK-293T) (PSI 1-6); higher = more stable
Conditions: c terminus: a fixed tail appended
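Note: lentivirally expressed fusions sorted by FACS into six bins by GFP to DsRed ratio, PSI derived from sequencing read proportions per bin multiplied by bin number.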

Protein stability index of substitutions, site by site:
D18: F 1.34; I 2.64; R 2.1; P 2.35; C 2.01; G 2.26; M 2.1; Y 1.44; Q 2.67; H 2.01; W 2.44; V 1.6; N 2.51; T 2.42; S 2.73; L 1.7; K 2.47; E 3.16; A 2.31
K16: W 1.88; Y 2.22; V 3.18; G 2.56; L 3.11; I 2.72; M 3.06; R 2.51; P 2.45; N 3.29; D 3.54; T 3.44; H 2.87; A 3.16; C 2.56; S 2.91; E 2.68; Q 2.53; F 3
Q13: H 2.46; D 3.77; S 2.94; I 2.36; Y 1.87; M 2.25; T 3.83; E 2.79; G 2.78; F 2.11; K 2.92; N 2.86; P 2.67; V 2.69; W 2.27; C 3.28; R 2.22; L 2.03; A 2.65
T22: C 2.2; P 2.86; I 1.93; N 2.86; H 2.39; A 2.77; Q 2.78; E 3.42; M 2.15; S 2.98; D 2.75; Y 1.93; L 3.45; K 2.51; F 1.97; G 3.23; R 2.5; V 2.46; W 1.91
H15: K 2.92; M 2.42; S 2.79; P 2.33; D 3.33; W 1.72; V 2.69; F 1.94; E 3.04; I 2.56; N 3.21; C 3.16; L 2.71; Q 3; G 2.73; R 2.44; Y 1.97; T 3.02; A 2.76
D12: T 2.21; V 2.05; W 1.43; Y 1.89
H21: P 2.54; S 3.4; N 3.05; F 2.19; L 2.66; A 3.24; Q 3.55; V 2.34; D 2.96; W 1.92; G 3.1; T 2.81; R 3.36; E 2.89; Y 2.41; K 3.11; I 2.55; C 3.21; M 3.25
A23: K 2.76; H 2.69; T 2.74; R 2.96; L 2.43; D 3.06; I 2.97; W 3.12; G 2.72; N 3.01; S 3.05; E 2.91; V 2.6; P 3.12; F 2.18; Y 3.03; Q 3.69; C 2.49; M 2.7
E19: H 2.22; F 1.97; N 3.27; W 1.43; G 1.71; K 1.91; I 1.63; R 2.7; L 2.29; D 2.28; A 2.33; Q 1.92; P 1.87; S 2.16; M 2.01; V 1.79; T 2.53; Y 1.6; C 1.54
L24: C 2.75; A 2.75; M 2.37; Q 3.14; H 2.78; G 3; T 3.05; W 2.68; I 2.31; Y 2.95; R 2.72; V 2.62; D 4.06; F 2.34; P 2.4; E 3.79; N 3.03; K 3.3; S 2.99
M20: C 2.48; G 3.12; E 2.94; K 2.94; S 3.45; W 2.82; N 3.59; H 2.79; D 3.56; F 2.75; L 3.13; A 3.04; I 2.36; R 3.5; V 2.84; Q 3; T 3.15; P 3.21; Y 2.45
E14: A 1.69; H 2.01; G 2.63; Y 1.44; F 1.9; I 1.28; L 1.79; V 1.82; M 2.72; T 2.04; C 1.5; D 2.61; P 1.9; K 2.76; S 2.15; Q 2.46; W 1.67; R 1.95; N 1.95
T17: R 2.68; D 3.12; K 3.12; S 2.76; I 2.16; E 2.99; C 2.5; Q 2.54; W 2.19; V 2.37; L 2.22; Y 2.33; P 3.17; F 2.15; A 2.45; H 2.55; G 2.94; M 2.71; N 2.21

Variants of: B2
Assay: as above
Conditions: c terminus: native

Protein stability index: each site, then its substitutions
M2: A 2.73; R 3.53; G 2.98; Y 3.22; L 3.03; H 2.4; K 2.98; D 2.98; I 3.15; F 3.53; T 2.81; W 3.66; V 2.72; C 3.25; N 1.93; Q 2.96; E 2.4; P 3.28; S 3.18
I1: G 3.11; K 3.29; D 2.5; H 3.39; W 3.51; Y 3.52; N 2.69; R 3.06; M 3.56; C 3.16; V 3.38; E 2.77; Q 3.45; F 3.39; T 3.53; L 3.49; A 3.25; P 3.56; S 3.02
A6: G 3.2; H 2.06; C 3.2; E 2.3; F 3.75; I 3.61; D 2.8
V5: P 2.36; E 2.42; W 3.4; Q 1.83; M 3.81; H 2.13; R 2.73; S 2.96; L 3.23; C 3.37; K 2.1; I 2.97; N 1.84; G 3.37; Y 3.72; F 3.17; D 2.77; A 3.36; T 3.31
L4: R 3.42; V 3.14; W 3.59; C 3.07; D 2.9; P 2.83; A 3.08; T 3.19; Y 2.76; I 3.33; N 1.79; E 1.57; M 3.29; G 3.32; H 2.36; F 3.69; K 2.78; S 3.29; Q 2.19
A3: S 2.86; L 3.65; H 2.85; E 2.2; I 3.5; G 3.17; Y 3.55; C 3.34; R 3.58; W 3.47; V 3.59; T 3.17; P 2.9; M 3.72; K 3.28; Q 3.28; N 2.46; D 1.33; F 3.55
